System: PBMCs from LTBI donors (IFN-γ production)
Assay type: cell-based, human
Conditions: ex vivo IFN-γ ELISPOT; for Resp. freq.: fraction of 28 LTBI donors responding to epitopes of the antigen; for Total SFC: total spot-forming cells, LTBI donors

Molecule	Resp. freq.	Total SFC
Rv0298: MTB protein, novel CD4 T cell antigen; Conserved hypotheticals (protein, listed as Mycobacterium tuberculosis) MTKEKISVTVDAAVLAAIDADARAAGLNRSEMIEQALRNEHLRVALRDYTAKTVPALDIDAYAQRVYQANRAAGS	11%	783 SFC
Rv0442c: MTB protein, novel CD4 T cell antigen; PE/PPE (protein, listed as Mycobacterium tuberculosis) MTSPHFAWLPPEINSALMFAGPGSGPLIAAATAWGELAEKLLASIASLGSVTSELTSGAWLGPSAAAMMAVATQYLAWLSTAAAQAEQAAAQAMAIATAFEAALAATVQPAVVAANRGLMQLLAATNWFGQNAPALMDVEAAYEQMWALDVAAMAGYHFDASAAVAQLAPWQQVLRNLGIDIGKNGQINLGFGNTGSGNIGNNNIGNNNIGSGNTGTGNIGSGNTGSGNLGLGNLGDGNIGFGNTGSGNIGFGITGDHQMGFGGFNSGSGNIGFGNSGTGNVGLFNSGSGNIGIGNSGSLNSGIGTSGTINAGLGSAGSLNTSFWNAGMQNAALGSAAGSEAALVSSAGYATGGMSTAALSSGILASALGSTGGLQHGLANVLNSGLTNTPVAAPASAPVGGLDSGNPNPGSGSAAAGSGANPGLRSPGTSYPSFVNSGSNDSGLRNTAVREPSTPGSGIPKSNFYPSPDRESAYASPRIGQPVGSE	11%	232 SFC
Rv0279c: MTB protein, novel CD4 T cell antigen; PE/PPE (protein, listed as Mycobacterium tuberculosis) MSFVIAAPEVIAAAATDLASLESSIAAANAAAAANTTALLAAGADEVSTAVAALFGAHGQAYQALSAQAQAFHAQFVQALTSGGGAYAAAEAAATSPLLAPINEFFLANTGRPLIGNGTNGAPGTGANGGDGGWLIGNGGAGGSGAAGVNGGAGGNGGAGGLIGNGGAGGAGGRASTGTGGAGGAGGAAGMLFGAAGVGGPGGFAAAFGATGGAGGAGGNGGLFADGGVGGAGGATDAGTGGAGGSGGNGGLFGAGGTGGPGGFGIFGGGAGGDGGSGGLFGAGGTGGSGGTSIINVGGNGGAGGDAGMLSLGAAGGAGGSGGSNPDGGGGAGGIGGDGGTLFGSGGAGGVCGLGFDAGGAGGAGGKAGLLIGAGGAGGAGGGSFAGAGGTGGAGGAPGLVGNAGNGGNGGASANGAGAAGGAGGSGVLIGNGGNGGSGGTGAPAGTAGAGGLGGQLLGRDGFNAPASTPLHTLQQQILNAINEPTQALTGRPLIGNGANGTPGTGADGGAGGWLFGNGGNGGHGATGADGGDGGSGGAGGILSGIGGTGGSGGIGTTGQGGTGGTGGAALLIGSGGTGGSGGFGLDTGGAGGRGGDAGLFLGAAGTGGQAALSQNFIGAGGTAGAGGTGGLFANGGAGGAGGFGANGGTGGNGLLFGAGGTGGAGTLGADGGAGGHGGLFGAGGTGGAGGSSGGTFGGNGGSGGNAGLLALGASGGAGGSGGSALNVGGTGGVGGNGGSGGSLFGFGGAGGTGGSSGIGSSGGTGGDGGTAGVFGNGGDGGAGGFGADTGGNSSSVPNAVLIGNGGNGGNGGKAGGTPGAGGTSGLIIGENGLNGL	11%	45 SFC
Rv1317c: MTB protein, novel CD4 T cell antigen; Information pathways (protein, listed as Mycobacterium tuberculosis) MHDDFERCYRAIQSKDARFDGWFVVAVLTTGVYCRPSCPVRPPFARNVRFLPTAAAAQGEGFRACKRCRPDASPGSPEWNVRSDVVARAMRLIADGTVDRDGVSGLAAQLGYTIRQLERLLQAVVGAGPLALARAQRMQTARVLIETTNLPFGDVAFAAGFSSIRQFNDTVRLACDGTPTALRARAAARFESATASAGTVSLRLPVRAPFAFEGVFGHLAATAVPGCEEVRDGAYRRTLRLPWGNGIVSLTPAPDHVRCLLVLDDFRDLMTATARCRRLLDLDADPEAIVEALGADPDLRAVVGKAPGQRIPRTVDEAEFAVRAVLAQQVSTKAASTHAGRLVAAYGRPVHDRHGALTHTFPSIEQLAEIDPGHLAVPKARQRTINALVASLADKSLVLDAGCDWQRARGQLLALPGVGPWTAEVIAMRGLGDPDAFPASDLGLRLAAKKLGLPAQRRALTVHSARWRPWRSYATQHLWTTLEHPVNQWPPQEKIA	11%	97 SFC
Rv1172c: MTB protein, novel CD4 T cell antigen; PE/PPE (protein, listed as Mycobacterium tuberculosis) MSFVFAAPEALAAAAADMAGIGSTLNAANVVAAVPTTGVLAAAADEVSTQVAALLSAHAQGYQQLSRQMMTAFHDQFVQALRASADAYATAEASAAQTMVNAVNAPARALLGHPLISADASTGGGSNALSRVQSMFLGTGGSSALGGSAAANAAASGALQLQPTGGASGLSAVGALLPRAGAAAAAALPALAAESIGNAIKNLYNAVEPWVQYGFNLTAWAVGWLPYIGILAPQINFFYYLGEPIVQAVLFNAIDFVDGTVTFSQALTNIETATAASINQFINTEINWIRGFLPPLPPISPPGFPSLP	11%	237 SFC
Rv0278c: MTB protein, novel CD4 T cell antigen; PE/PPE (protein, listed as Mycobacterium tuberculosis) MSFVIAAPEVIAAAATDLASLGSSISAANAAAAANTTALMAAGADEVSTAIAALFGAHGQAYQALSAQAQAFHAQFVQALTSGGGAYAAAEAAAVSPLLDPINEFFLANTGRPLIGNGANGAPGTGANGGDGGWLIGNGGAGGSGAAGVNGGAGGNGGAGGNGGAGGLIGNGGAGGAGGVASSGIGGSGGAGGNAMLFGAGGAGGAGGGVVALTGGAGGAGGAGGNAGLLFGAAGVGGAGGFTNGSALGGAGGAGGAGGLFATGGVGGSGGAGSSGGAGGAGGAGGLFGAGGTGGHGGFADSSFGGVGGAGGAGGLFGAGGEGGSGGHSLVAGGDGGAGGNAGMLALGAAGGAGGIGGDGGTLTAGGIGGAGGAGGNAGLLFGSGGSGGAGGFGFADGGQGGPGGNAGTVFGSGGAGGNGGVGQGFAGGIGGAGGTPGLIGNGGNGGNGGASAVTGGNGGIGGTGVLIGNGGNGGSGGIGAGKAGVGGVSGLLLGLDGFNAPASTSPLHTLQQNVLNVVNEPFQTLTGRPLIGNGANGTPGTGADGGAGGWLFGNGANGTPGTGAAGGAGGWLFGNGGNGGHGATNTAATATGGAGGAGGILFGTGGNGGTGGIATGAGGIGGAGGAGGVSLLIGSGGTGGNGGNSIGVAGIGGAGGRGGDAGLLFGAAGTGGHGAAGGVPAGVGGAGGNGGLFANGGAGGAGGFNAAGGNGGNGGLFGTGGTGGAGTNFGAGGNGGNGGLFGAGGTGGAAGSGGSGITTGGGGHGGNAGLLSLGASGGAGGSGGASSLAGGAGGTGGNGALLFGFRGAGGAGGHGGAALTSIQQGGAGGAGGNGGLLFGSAGAGGAGGSGANALGAGTGGTGGDGGHAGVFGNGGDGGCRRVWRRYRRQRWCRRQRRADRQRRQRRQRRQSRGHARCRRHRRAAARRERTQRLAIAGRPATTRGVEGISCSPQMMP	11%	45 SFC
Rv0987: MTB protein, novel CD4 T cell antigen; Cell wall and cell processes (protein, listed as Mycobacterium tuberculosis) MNDQAPVAYAPLWRTAWRRLRQRPFQYILLVLGIALGVAMIVAIDVSSNSAQRAFDLSAAAITGKSTHRLVSGPAGVDQQLYVDLRRHGYDFSAPVIEGYVLARGLGNRAMQFMGTDPFAESAFRSPLWSNQNIAELGGFLTRPNGVVLSRQVAQKYGLAVGDRIALQVKGAPTTVTLVGLLTPADEVSNQKLSDLIIADISTAQELFHMPGRLSHIDLIIKDEATATRIQQRLPAGVRMETSDTQRDTVKQMTDAFTVNLTALSLIALLVGIFLIYNTVTFNVVQRRPFFAILRCLGVTREQLFWLIMTESLVAGLIGTGLGLLIGIWLGEGLIGLVTQTINDFYFVINVRNVSVSAESLLKGLIIGIFAAMLATLPPAIEAMRTVPASTLRRSSLESKITKLMPWLWVAWFGLGSFGVLMLWLPGNNLVVAFVGLFSVLIALALIAPPLTRFVMLRLAPGLGRLLGPIGRMAPRNIVRSLSRTSIAIAALMMAVSLMVGVSISVGSFRQTLANWLEVTLKSDVYVSPPTLTSGRPSGNLPVDAVRNISKWPGVRDAVMARYSSVFAPDWGREVELMAVSGDISDGKRPYRWIDGNKDTLWPRFLAGKGVMLSEPMVSRQHLQMPPRPITLMTDSGPQTFPVLAVFSDYTSDQGVILMDRASYRAHWQDDDVTTMFLFLASGANSGALIDQLQAAFAGREDIVIQSTHSVREASMFIFDRSFTITIALQLVATVVAFIGVLSALMSLELDRAHELGVFRAIGMTTRQLWKLMFIETGLMGGMAGLMALPTGCILAWILVRIINVRSFGWTLQMHFESAHFLRALLVAVVAALAAGMYPAWRLGRMTIRTAIREE	11%	133 SFC
Rv1366: MTB protein, novel CD4 T cell antigen; Conserved hypotheticals (protein, listed as Mycobacterium tuberculosis) MVVALVGSAIVDLHSRPPWSNNAVRRLGVALRDGVDPPVDCPSYAEVMLWHADLAAEVQDRIEGRSWSASELLVTSRAKSQDTLLAKLRRRPYLQLNTIQDIAGVRIDADLLLGEQTRLAREIADHFGADQPAIHDLRDHPHAGYRAVHVWLRLPAGRVEIQIRTILQSLWANFYELLADAYGRGIRYDERPEQLAAGVVPAQLQELVGVMQDASADLAMHEAEWQHCAEIEYPGQRAMALGEASKNKATVLATTKFRLERAINEAESAGGGG	11%	308 SFC
Rv0985c: MTB protein, novel CD4 T cell antigen; Cell wall and cell processes (protein, listed as Mycobacterium tuberculosis) MLKGFKEFLARGNIVDLAVAVVIGTAFTALVTKFTDSIITPLINRIGVNAQSDVGILRIGIGGGQTIDLNVLLSAAINFFLIAFAVYFLVVLPYNTLRKKGEVEQPGDTQVVLLTEIRDLLAQTNGDSPGRHGGRGTPSPTDGPRASTESQ	11%	70 SFC
Rv0690c: MTB protein, novel CD4 T cell antigen; Conserved hypotheticals (protein, listed as Mycobacterium tuberculosis) MTGTEHLVHTLRSQGRVCTSSGSPMYRELLELVAADVESGGVFASILADQKGAPEGQAVPLRLLGGLHRMVLDGRAPVLRRWYPSTGGTWQAEAAWPDIVRTATDQPESLRAALDRPPQTNEVGRSAALIGGLLIACLQFDLPIRLFEIGSSAGLNLRPDRYRYRYLGGEWGLADSPVRIDNAWLGELPPTATVRIVERHGYDIAPIDVTSPDGELNALSYIWPDQTDRLERLRGAIAVARNIPADLHRQAAHAAVAGMTLTDDALTVLWHSITWQYLPADERAAIRAGIDALAAQADAHCPFVHLTLEPAHQRPGAQIKYLVRMRSWPGGHARVLGECHPHGPPVTWQ	11%	233 SFC

Source: patent US10703784B2, “Antigens and epitopes derived from Mycobacterium tuberculosis” (priority 2011, dated 2020)
